Experimental data taken from publication doi:10.1101/2023.03.27.534416 (bioRxiv, 2023).

Target: the molecule itself
Assay: MST

B1: MRE11 structured-domain (1-411 aa) (domain or fragment, UniProt P49959 1-411, looked up)
chain: MSTADALDDENTFKILVATDIHLGFMEKDAVRGNDTFVTLDEILRLAQENEVDFILLGGDLFHENKPSRKTLHTCLELLRKYCMGDRPVQFEILSDQSVNFGFSKFPWVNYQDGNLNISIPVFSIHGNHDDPTGADALCALDILSCAGFVNHFGRSMSVEKIDISPVLLQKGSTKIALYGLGSIPDERLYRMFVNKKVTMLRPKEDENSWFNLFVIHQNRSKHGSTNFIPEQFLDDFIDLVIWGHEHECKIAPTKNEQQLFYISQPGSSVVTSLSPGEAVKKHVGLLRIKGRKMNMHKIPLHTVRQFFMEDIVLANHPDIFNPDNPKVTQAIQSFCLEKIEEMLENAERERLGNSHQPEKPLVRLRVDYSGGFEPFSVLRFSQKFVDRVANPKDIIHFFRHREQKEKTGEE
modifications: amine-reactive AlexaFluor-647 dye on the labelled copy; the titrated copy is unlabelled
Kd: 370 ± 80 nM
